Non-standard residues stand in square brackets, D forms with d. No end group written: not given here. pY = N[C@@H](Cc1ccc(OP(=O)(O)O)cc1)C(=O)O
Molecular target: STAT3 with DNA-binding activity in vitro (activated STAT3 dimers)
Test: cell-based or functional assay

Row | Binder | IC50, Disruption of STAT3 DNA-binding Activity [µM]
1 | P[pY]LKTK [PY*LKTK (SEQ ID NO:20)] | 280
2 | Ac-P[pY]LK [Ac-PY*LK (SEQ ID NO:34)] | 156
3 | Ac-P[pY]LKTK [Ac-PY*LKTK (SEQ ID NO:32)] | 212
4 | A[pY]LK [AY*LK (SEQ ID NO:30)] | 365
5 | Ac-[pY]-Leu-Lys [Ac-Y*LK (SEQ ID NO:31)] | 421
6 | P[pY]LA [PY*LA (SEQ ID NO:35)] | 326
